Laboratory results from publication PMC13182210, “Time‐Resolved Native Mass Spectrometry Reveals Reversible Light‐Driven Oligomerization of Arabidopsis Cryptochrome 1 and Its Antagonism by BIC1” (Angewandte Chemie (International Ed. in English), 2026).

B2: Arabidopsis thaliana cryptochrome 1 photolyase homology region (CRY1-PHR) (domain or fragment, UniProt Q43125 1-509, looked up)
chain: MSGSVSGCGSGGCSIVWFRRDLRVEDNPALAAAVRAGPVIALFVWAPEEEGHYHPGRVSRWWLKNSLAQLDSSLRSLGTCLITKRSTDSVASLLDVVKSTGASQIFFNHLYDPLSLVRDHRAKDVLTAQGIAVRSFNADLLYEPWEVTDELGRPFSMFAAFWERCLSMPYDPESPLLPPKKIISGDVSKCVADPLVFEDDSEKGSNALLARAWSPGWSNGDKALTTFINGPLLEYSKNRRKADSATTSFLSPHLHFGEVSVRKVFHLVRIKQVAWANEGNEAGEESVNLFLKSIGLREYSRYISFNHPYSHERPLLGHLKFFPWAVDENYFKAWRQGRTGYPLVDAGMRELWATGWLHDRIRVVVSSFFVKVLQLPWRWGMKYFWDTLLDADLESDALGWQYITGTLPDSREFDRIDNPQFEGYKFDPNGEYVRRWLPELSRLPTDWIHHPWNAPESVLQAAGIELGSNYPLPIVGLDEAKARLHEALSQMWQLEAASRAAIENGSEEG
notes: Cryptochrome 1 of Arabidopsis thaliana, photolyase homology region (PHR) domain; Construct limits, tags and host are not in the main text and probably stand in the Supporting Information; The oligomeric state depends on light: mostly monomer in the dark, tetramer under blue light; also called CRY1 PHR domain; wild-type CRY1; source: recombinant, purified

Experiments:
[1] = target: CRY1^L407F mutant of the Arabidopsis CRY1 PHR domain (Arabidopsis thaliana) (UniProt Q43125); assay: SEC; analytical size exclusion chromatography, samples kept in darkness
[2] = target: CRY1^L407F mutant of the Arabidopsis CRY1 PHR domain (Arabidopsis thaliana) (UniProt Q43125); assay: native MS; LILBID-MS in darkness; CRY1 alone or with BIC1 in an equimolar ratio
[3] = target: CRY1^L407F mutant of the Arabidopsis CRY1 PHR domain (Arabidopsis thaliana) (UniProt Q43125); assay: native MS; quantitative LILBID-MS (qLILBID-MS), label-free, in the dark; mean of three measurements
[4] = target: B2; assay: as above; details: both partners purified
[5] = target: B2; assay: native MS; quantitative LILBID-MS (qLILBID-MS), label-free, under blue light; mean of three measurements; details: both partners purified
[6] = target: the molecule itself; assay: native MS; nESI-MS with a blue-light LED on the sample, static and time-resolved, with 100 µM ATP; two-step reversible kinetic model monomer to dimer to tetramer
[7] = target: the molecule itself; assay: native MS; LILBID-MS with a blue-light LED on the sample throughout; CRY1 alone, with BIC1 in an equimolar ratio, or BIC1 added to pre-illuminated tetrameric CRY1
[8] = target: the molecule itself; assay: native MS; nESI-MS with a blue-light LED on the sample, static and time-resolved, room temperature, no ATP; two-step reversible kinetic model monomer to dimer to tetramer

## CRY1^L407F mutant of the Arabidopsis CRY1 PHR domain (from UniProt Q43125 1-681) (domain or fragment)
[1]
  stoichiometry N: 4
[2]
  stoichiometry N: 4

B1: Blue-light Inhibitor of Cryptochromes 1 (BIC1) (natural protein, UniProt Q9LXJ1 1-140, looked up)
chain: MMNIDDTTSPMAHPIGPSQPPSDQTKQDPPSLPQEAASSVSADKKDLALLEEKPKQSQEEDRVDTGRERLKKHRREIAGRVWIPEIWGQEELLKDWIDCSTFDTCLVPAGISSARTALVEEARRAASASGGLHNRCLILR
notes: The calculated mass may include a tag; Construct details probably stand in the Supporting Information
[3]
  Kd: 100 nM
[4]
  Kd: ~1200 nM
[5]
  Kd: 130 ± 90 nM

## B2
[6]
  fold decrease of dimer dissociation rate with 100 µM ATP against no ATP: ~10 fold
  fold decrease of tetramer dissociation rate with 100 µM ATP against no ATP: ~2 fold
  fold increase of dimer-to-tetramer association rate with 100 µM ATP against no ATP: 4 fold
  fold increase of monomer-to-dimer association rate with 100 µM ATP against no ATP: ~2 fold
[7]
  stoichiometry N: 4
[8]
  half-life of tetramer formation (single-exponential fit): ~18 s
